Results as given in patent US20030199671A1, “Binding molecules for Fc-region polypeptides” (priority 2001, published 2003).
Starred links: 1 amine or outer side, 2 acyl side, 3 side chain; linkers in the order of their positions; H or OH if unused. Primed or numbered codes have the meaning given here. code X″ = C-terminal linker unit, -NH-(CH2CH2O)2-CH2CH2- (X-NH2 = -NH-(CH2CH2O)2-CH2CH2-NH2), C(COCCOCC[*:2])N[*:1]; Su = not defined here

Key:
[1] = target: human IgG (unfractionated, polyclonal); assay: total dynamic capacity
[2] = target: human IgG (unfractionated, polyclonal); assay: filterplate; 25 mg human IgG applied per ml resin

Dynamic Cap. [1] | Static Cap. [2] | Binder
9 mg/mL | 23 mg/mL | Ac-GDDHMCVYTTWGELIWCDNHEPG-{code X″-Su-code X″-NH2} (not fully specified (bridges); printed as Ac-GDDHMCVYTTWGELIWCDNHEPG-X-Su-X-NH2; cysteine pairing not given here; reading uncertain) [DX878]
8 mg/mL | 20 mg/mL | Ac-GDDHMCVYTTWGELIWCDNHEPGPEG-{NH‑(CH2CH2O)2‑CH2CH2‑NH2} (not fully specified (bridges); printed as Ac-GDDHMCVYTTWGELIWCDNHEPGPEG-X-NH2; cysteine pairing not given here) [DX877]
